# Measured values from paper PMC10062202.
# Substrate: CC(=O)O
# Assay: purified protein
# Settings: 5 mM ATP, 2.5 mM CoA, 6 mM MgCl2, pH 7.5, 37 °C, His-tagged
protein,measurement,value
atACS (Arabidopsis acetyl-CoA synthetase) (Arabidopsis thaliana) (protein) ASEENDLVFPSKEFSGQALVSSPQQYMEMHKRSMDDPAAFWSDIASEFYWKQKWGDQVFSENLDVRKGPISIEWFKGGITNICYNCLDKNVEAGLGDKTAIHWEGNELGVDASLTYSELLQRVCQLANYLKDNGVKKGDAVVIYLPMLMELPIAMLACARIGAVHSVVFAGFSADSLAQRIVDCKPNVILTCNAVKRGPKTINLKAIVDAALDQSSKDGVSVGICLTYDNSLATTRENTKWQNGRDVWWQDVISQYPTSCEVEWVDAEDPLFLLYTSGSTGKPKGVLHTTGGYMIYTATTFKYAFDYKSTDVYWCTADCGWITGHSYVTYGPMLNGATVVVFEGAPNYPDPGRCWDIVDKYKVSIFYTAPTLVRSLMRDDDKFVTRHSRKSLRVLGSVGEPINPSAWRWFFNVVGDSRCPISDTWWQTETGGFMITPLPGAWPQKPGSATFPFFGVQPVIVDEKGNEIEGECSGYLCVKGSWPGAFRTLFGDHERYETTYFKPFAGYYFSGDGCSRDKDGYYWLTGRVDDVINVSGHRIGTAEVESALVLHPQCAEAAVVGIEHEVKGQGIYAFVTLLEGVPYSEELRKSLVLMVRNQIGAFAAPDRIHWAPGLPKTRSGKIMRRILRKIASRQLEELGDTSTLADPSVVDQLIALADV,Km,180 ± 30 µM
same,kcat,15.05 ± 0.65 s⁻¹
